# Laboratory results published in US20250249077A1, “NAMPT FOR WOUND-HEALING AND STIMULATING HAIR GROWTH AND/OR REGROWTH” (Innovative Surgical Regeneration Holdings, LLC, priority 2022, published 2025).
# “Also recorded” adds a separate entry of the source.
# B1: NAMPT: Nicotinamide phosphoribosyltransferase protein, rate-limiting enzyme of the salvage NAD synthesis pathway; human sequence SEQ ID NO: 1; recombinant (protein, listed as Homo sapiens)
# chain: MNPAAEAEFNILLATDSYKVTHYKQYPPNTSKVYSYFECREKKTENSKLRKVKYEETVFYGLQYILNKYLKGKVVTKEKIQEAKDVYKEHFQDDVFNEKGWNYILEKYDGHLPIEIKAVPEGFVIPRGNVLFTVENTDPECYWLTNWIETILVQSWYPITVATNSREQKKILAKYLLETSGNLDGLEYKLHDFGYRGVSSQETAGIGASAHLVNFKGTDTVAGLALIKKYYGTKDPVPGYSVPAAEHSTITAWGKDHEKDAFEHIVTQFSSVPVSVVSDSYDIYNACEKIWGEDLRHLIVSRSTQAPLIIRPDSGNPLDTVLKVLEILGKKFPVTENSKGYKLLPPYLRVIQGDGVDINTLQEIVEGMKQKMWSIENIAFGSGGGLLQKLTRDLLNCSFKCSYVVTNGLGINVFKDPVADPNKRSKKGRLSLHRTPAGNFVTLEEGKGDLEEYGQDLLHTVFKNGKVTKSYSFDEIRKNAQLNIELEAAHH
# Legend:
# diabetic wounds [1] = experiment: Splinted full thickness excisional wound model, diabetic db/db mice; format: in vivo
# Description: (§1) Diabetic, aged diabetic, and nondiabetic mice were purchased from JAX labs. Bilateral, symmetric full thickness wounds (which recapitulate complete skin tissue loss) were generated on the murine dorsum using a biopsy punch; wounds were treated with the disclosed therapeutic or the control vehicle.
# (§2) NAMPT hydrogel was administered on wounds, control hydrogel served as control.
# nondiabetic wounds = experiment: Splinted full thickness excisional wound model, nondiabetic (wildtype) mice; format: in vivo; conditions: versus control hydrogel
# Description: as §1, §2
# diabetic wounds [2] = experiment: Single-cell RNA sequencing of NAMPT treated versus control diabetic wounds; format: in vivo, mice
# Description: Studies including single-cell RNA sequencing performed by the authors have elucidated the mechanism of action of the disclosed novel treatment on complete skin regeneration and prevention of scarring.
# We performed gene ontology (GO) analysis on differentially expressed genes between the fibroblast clusters (clusters #0, #5, #10, and #12) to determine whether specific functions could be assigned to the different fibroblast subpopulations (FIG. 2A-E). […] Next, we performed gene ontology analysis on differentially expressed genes between NAMPT treated versus control Cluster #0 fibroblasts.
# We utilized the CellChat package to infer cell-cell communication in NAMPT treated diabetic wounds versus control diabetic wounds.
# Impaired cellular proliferation in diabetic wounds leads to delayed granulation tissue formation and delayed reepithelialization. We utilized the Tricycle package40 to determine the impact of NAMPT on cell cycle of diabetic wounds.
# hair follicles = experiment: Hair growth after intradermal injection of NAMPT in the skin of mice; format: in vivo
# Description: The mean number of hair follicles per field in the NAMiPT group is 33.93. The mean number of hair follicles per field in the control group is 27.47. The difference between the number of hair follicles per field between the NAMPT group and control group is statistically significant (p-value 0.0097 by unpaired t-test (GraphPad Prism 9).
# [3] = pseudotime lineage analysis, relative to control wounds
molecule,measurement,setting,value
B1,skin regeneration,"diabetic wounds [1]; diabetic wounds, versus control hydrogel",sufficient to regenerate all tissues of the skin
same,percentage of area staining positive for Keratin15,"diabetic wounds [1]; immunohistochemistry, diabetic wounds vs control, n=3, p=0.0166",significantly increases
same,percentage of area staining positive for b-catenin,"diabetic wounds [1]; immunohistochemistry, diabetic wounds vs control, n=3, p=0.0332",significantly increases
same,skin regeneration,nondiabetic wounds,sufficient to regenerate all tissues of the skin
same,Wnt-Fzd ligand-receptor interactions,diabetic wounds [2]; CellChat analysis,"increased diversity, number, and strength"
same,"gene expression for collagens Col1a1, Col1a2, Col3a1, Col5a2, Col6a1","diabetic wounds [2]; Cluster #0 fibroblasts, treated vs control",significantly increased
same,"epidermal stem cell markers Krt5, Krt14, Krt15, Trp63, Itgb1, Itga6","diabetic wounds [2]; Cluster #1 undifferentiated epidermal cells, compared to controls",significantly higher
same,"KEGG oxidative phosphorylation, fatty acid metabolism, TCA cycle, mTOR signaling and pyruvate metabolism pathways",diabetic wounds [2]; KEGG pathway analysis,significantly enhances
same,"proportion of cells in the S phase, G2/M phase, and M phase","diabetic wounds [2]; Tricycle cell cycle analysis, compared to controls",increases
same,Hgf signaling,diabetic wounds [2]; epidermal stem cell populations,promoted
same,Krt79+ and Krt6a/Krt6b+ cells,"diabetic wounds [2]; pseudotime lineage analysis, relative to control treated wounds",enriched
same,Krt77+ cells,diabetic wounds [2]; [3],increased
same,Pparg+/Fasn+ cells,diabetic wounds [2]; [3],enriched
same,"immune pathways (MHC-II, CD6, ALCAM, VISTA, MHC-I, CD80)",diabetic wounds [2]; treated diabetic wounds,upregulated
same,"pro-inflammatory pathways, including TNF and IL1",diabetic wounds [2]; treated diabetic wounds,activation
same,mean number of hair follicles per field,"hair follicles; 15 fields at 200× magnification, counted manually, unblinded",33.93
same,"Difference between means (B − A) ± SEM, hair follicles per field","hair follicles; NAMPT group minus control group, unpaired t test",6.467 ± 2.329
same,"hair follicles, histological analysis versus control",hair follicles; NAMPT treated mice skin versus control,significant increase; also recorded: increased hair follicles
same,hair growth,"hair follicles; intradermal injection every 48 hours, compared to control",promoted hair growth visibly by 10 and 14 days
